From article PMC3958920 (FEBS Open Bio, 2014)

Tests used:
SEC = target: the molecule itself; assay: SEC
purified protein [1] = substrate: O=C(O)[C@@H]1CCCCN1; assay: purified protein; conditions: NADP+
purified protein [2] = substrate: O=C(O)C1=NC[C@@H](O)C1; assay: purified protein; conditions: NADPH
purified protein [3] = substrate: O=C(O)[C@@H]1CCCN1; assay: purified protein; conditions: NADP+
purified protein [4] = substrate: O=C(O)C1=NCCC1; assay: purified protein; conditions: NADPH
purified protein [5] = substrate: O=C(O)C1=NCCCC1; assay: purified protein; conditions: NADPH
[6] = potassium phosphate pH 6.5, 30 °C
[7] = potassium phosphate pH 7.0, 30 °C

| Protein | stoichiometry N (SEC) | Km (purified protein [1]; glycine-NaOH pH 10.5, 30 °C) [mM] | kcat (purified protein [1]; glycine-NaOH pH 10.5, 30 °C) [s⁻¹] | kcat/Km (purified protein [1]; glycine-NaOH pH 10.5, 30 °C) [M⁻¹ s⁻¹] | Km (purified protein [2]; [6]) [mM] | kcat (purified protein [2]; [6]) [s⁻¹] | kcat/Km (purified protein [2]; [6]) [M⁻¹ s⁻¹] | Km (purified protein [3]; glycine-NaOH pH 10.5, 30 °C) [mM] | kcat (purified protein [3]; glycine-NaOH pH 10.5, 30 °C) [s⁻¹] | kcat/Km (purified protein [3]; glycine-NaOH pH 10.5, 30 °C) [M⁻¹ s⁻¹] | Km (purified protein [4]; [6]) [mM] | kcat (purified protein [4]; [6]) [s⁻¹] | kcat/Km (purified protein [4]; [6]) [M⁻¹ s⁻¹] | Km (purified protein [5]; [6]) [mM] | kcat (purified protein [5]; [6]) [s⁻¹] | kcat/Km (purified protein [5]; [6]) [M⁻¹ s⁻¹] | also measured |
| --- | --- | --- | --- | --- | --- | --- | --- | --- | --- | --- | --- | --- | --- | --- | --- | --- | --- |
| AbLhpI, Δ1-pyrroline-2-carboxylate reductase of Azospirillum brasilense (enzyme, UniProt V5YW53 1-311, looked up) MTALSPIPVFDAADTAALLAYPALLATLGQAVADYAAGEIVSPERLVVPLQAGGVMLSMPSSARDLATHKLVNVCPGNGARGLPTILGQVTAYDASTGEMRFALDGPTVTGRRTAAVTALGIQALHGAAPRDILLIGTGKQAANHAEALAAIFPEARLHVRGTSADSAAAFCAAHRAQAPRLVPLDGDAIPDAIDVVVTLTTSRTPVYREAAREGRLVVGVGAFTADAAEIDANTVRASRLVVDDPAGARHEAGDLIVAQVDWQHVASLADVLGGTFDRSGPLLFKSVGCAAWDLAACRTARDALAARRAG | 2 | 6.54 ± 0.96 | 2.5 ± 0.233 | 383 ± 20 | 0.491 ± 0.063 | 10.3 ± 0.967 | 21200 ± 750 | 3.63 ± 0.31 | 3.92 ± 0.117 | 1080 ± 61.7 | 0.628 ± 0.045 | 523 ± 21.7 | 835000 ± 23300 | 0.474 ± 0.050 | 166 ± 10.2 | 352000 ± 16800 |  |
| C14orf149, human trans-3-hydroxy-L-proline dehydratase (enzyme, UniProt Q96EM0 1-354, looked up) MESALAVPRLPPHDPGTPVLSVVDMHTGGEPLRIVLAGCPEVSGPTLLAKRRYMRQHLDHVRRRLMFEPRGHRDMYGAVLVPSELPDAHLGVLFLHNEGYSSMCGHAVLALGRFALDFGLVPAPPAGTREARVNIHCPCGLVTAFVACEDGRSHGPVRFHSVPAFVLATDLMVDVPGHGKVMVDIAYGGAFYAFVTAEKLGLDICSAKTRDLVDAASAVTEAVKAQFKINHPDSEDLAFLYGTILTDGKDAYTKEPTTNICVFADEQVDRSPTGSGVTARIALQYHKGLLELNQMRAFKSSATGSVFTGKAVREAKCGDFKAVIVEVSGQAHYTGTASFIIEDDDPLRDGFLLK | 2 |  |  |  |  |  |  |  |  |  |  |  |  |  |  |  |  |
| CpLhpH, trans-3-hydroxy-L-proline dehydratase of Colwellia psychrerythraea 34H (enzyme, UniProt Q485S0 1-355, looked up) MTKNIAQAAVKFEQWQPKIEQESYLTINSLECHTGGEPLRIITSGFPVLKGNTILAKANDCKQNYDQLRRALMFEPRGHADMYGAIITDAERDDSHFGAVFIHNEGYSSMCGHAVIALTKTAVESGVVARTGDVTQVVIDVPCGQIYAMAYSHNNVVKHVSFQCVPSFVYAKDQQVEVDGIGMVQFDIAYGGAFYAYVQASSLGLSLVPEQQEKLIAYGRKIKQAIIPQFEINHPTTAELSFLYGVIFIDDSPNQDVHSRNVCIFADGELDRSPTGSGVSGRIALHHAKQQIVLNETITIESILASSFSVRAIETVCFAGFDAVIPEVTGDAYVCGKGQWFINAEDPLKYGFLLR | 2 |  |  |  |  |  |  |  |  |  |  |  |  |  |  |  |  |
| PaLhpD, Pyr2C/Pip2C reductase of Pseudomonas aeruginosa (enzyme, Pseudomonas aeruginosa PAO1, UniProt Q9I492 1-334, looked up) MIRMTLDEVRELAVRILRRHAFSEAHVQAVADTLVAGERDECASHGIWRLLGCIATLKAGKVSADAEPELHDIAPGLLRVDAHGGFSQCAFRLGLPHLLEKARSQGIAAMAVNRCVHFSALWVEVEALTEAGLVALATTPSHAWVAPAGGRKPIFGTNPIAFGWPRPDGPPFVFDFATSAVARGEIQLHERAGKPIPLGWGVDEQGEPTTDASAALRGAMLTFGGHKGSALAAMVELLAGPLIGDLTSAESLAYDEGSRSSPYGGELLIAIDPRRMLGASAEEHLARAETLFEGIVEQGARLPSQRRFEARERSARDGVTIPEALHRELLALLE | 2 |  |  |  |  |  |  |  |  |  |  |  |  |  |  |  | Km (purified protein [1]; glycine-NaOH pH 10.0, 30 °C): 34.8 ± 4.0 mM; kcat (purified protein [1]; glycine-NaOH pH 10.0, 30 °C): 2.25 ± 0.233 s⁻¹; kcat/Km (purified protein [1]; glycine-NaOH pH 10.0, 30 °C): 64.7 ± 0.833 M⁻¹ s⁻¹; Km (purified protein [2]; [7]): 0.835 ± 0.109 mM; kcat (purified protein [2]; [7]): 14.5 ± 1.18 s⁻¹; kcat/Km (purified protein [2]; [7]): 17400 ± 800 M⁻¹ s⁻¹; Km (purified protein [3]; glycine-NaOH pH 10.0, 30 °C): 18.5 ± 2.1 mM; kcat (purified protein [3]; glycine-NaOH pH 10.0, 30 °C): 3.42 ± 0.3 s⁻¹; kcat/Km (purified protein [3]; glycine-NaOH pH 10.0, 30 °C): 185 ± 5 M⁻¹ s⁻¹; Km (purified protein [4]; [7]): 0.447 ± 0.040 mM; kcat (purified protein [4]; [7]): 41.7 ± 2 s⁻¹; kcat/Km (purified protein [4]; [7]): 93300 ± 3670 M⁻¹ s⁻¹; Km (purified protein [5]; [7]): 1.57 ± 0.3 mM; kcat (purified protein [5]; [7]): 35.3 ± 4.83 s⁻¹; kcat/Km (purified protein [5]; [7]): 22500 ± 1130 M⁻¹ s⁻¹ |
| CpLhpI, Δ1-pyrroline-2-carboxylate reductase of Colwellia psychrerythraea 34H (enzyme, UniProt Q485R8 1-316, looked up) MKIISAEQVHQNLNFEELIPLLKQSFSRPFSMPQRQVYSLAPEQSENHDAFALLPSWNEEVIGNKAFTYFPDNAKKHDLPGLFSKIMLFKRQTGEPLALVDGTSVTYWRTAAISALASQLLSRKNSQHLMLFGTGNLASYLVKAHLTVRDIKQVTLWGRNAKKVSKLIADFSILYPAVTFKTSVDVNAEVASADIICCATGAKTPLFDGNSVSAGCHIDCLGNHMTDARECDTTTILRARVFVDSLTNTLNEAGELLIPMAEDAFNKDEIVGELADMCKTPSMLRQSSDEITLFKSVGTAISDLVAAHSVVEKLAD | 2 | 80.1 ± 2.8 | 0.0213 ± 0.000667 | 0.267 ± 0.0167 | 8.28 ± 2.45 | 1.02 ± 0.287 | 124 ± 2.33 | 18.3 ± 2.4 | 1.09 ± 0.115 | 59.5 ± 1.5 | 5.90 ± 0.36 | 124 ± 7.83 | 21170 ± 33.3 | 7.26 ± 1.22 | 1.38 ± 0.228 | 190 ± 3.33 |  |
| AbLhpH, trans-3-hydroxy-L-proline dehydratase of Azospirillum brasilense (enzyme, UniProt V5YXI5 1-335, looked up) MKITRSLSTVEVHTGGEAFRIVTSGLPRAPGDTIVQRRAWLKENADEIRRALMFEPRGHADMYGGYLTEPVSPNADFGVIFVHNEGYSDHCGHGVIALSTAAVELGWVQRTVPETRVGIDAPCGFIEAFVKWDGEHAGPVRFVNVPSFIWQRDVSVETPSFGTVTGDIAYGGAFYFYVDGAPFDLPVREAAVEKLIRFGAEVKAAANAKYPVVHPEIPEINHIYGTIIANAPRHPGSTQANCCVFADREVDRSPTGSGTGGRVAQLYQRGLLAAGDTLVNESIVGTVFKGRVLRETTVGDIPAVIPEVEGSAHICGFANWIVDERDPLTYGFLVR | 2 |  |  |  |  |  |  |  |  |  |  |  |  |  |  |  |  |
